In paper PMC9789309:

Experiments:
[1] = target: ACE2, membrane-anchored, endogenously expressed on VeroE6 cells (African green monkey (endogenous in VeroE6)); test: single-molecule force spectroscopy (AFM)
[2] = target: ACE2, membrane-anchored, endogenously expressed on VeroE6 cells (African green monkey (endogenous in VeroE6)); test: single-molecule force spectroscopy (AFM) + kinetic model

Substance	Kd [1]	on-rate of three bonds [1]	on-rate of two bonds [1]	percentage of one bond [1]	bond lifetime at 20 pN (calculated) [2]	bond lifetime at zero force (calculated) [2]	percentage of three bonds [1]	percentage of two bonds [1]
SARS-CoV-2 Delta variant RBD monomer (from UniProt P0DTC2) (domain or fragment)	0.97 nM	–	–	–	–	–	–	–
SARS-CoV-2 Delta variant Spike trimer (from UniProt P0DTC2) (natural protein)	0.5 nM	23 s⁻¹	80 s⁻¹	68.7%	460 s	42000 s	–	–
SARS-CoV-2 Omicron (B.1.1.529) variant RBD monomer (from UniProt P0DTC2) (domain or fragment)	0.068 nM	–	–	–	–	–	–	–
SARS-CoV-2 Omicron (B.1.1.529) variant Spike trimer (from UniProt P0DTC2) (natural protein)	0.055 nM	–	49 s⁻¹	85.4%	960 s	370000 s	1%	13.6%
